Laboratory results from publication PMC10922771.

Assays:
Assay in all cases: FXase
[1] = target: activated FIX-403 (FIXa-403) (human) (UniProt P00740)
[2] = target: activated human factor IX (hFIXa) (human) (UniProt P00740)
[3] = target: activated ET9 (ET9a; FIX-403 with p.Arg384Leu) (human) (UniProt P00740)
[4] = target: activated human factor IX Padua (hFIXa-Padua, p.Arg384Leu) (human) (UniProt P00740)

Substance: activated factor VIII (FVIIIa), from Advate, recombinant full-length FVIII activated with thrombin (complex)
- Kd [1]: 2.08 nM
- Kd [2]: 7.8 nM
- Kd [3]: 0.26 nM
- Kd [4]: 1.08 nM
